From PMC3779351 (Journal of Molecular Biology, 2013)

Tests used:
Assay in all cases: SPR
GST-Cul5^NTD (wild type) = GST-Cul5^NTD (wild type) (mouse, UniProt Q9D5V5 1-384, Val341Arg | Leu345Asp)
GST-Cul5^NTD Phe41Ala = GST-Cul5^NTD Phe41Ala (mouse, UniProt Q9D5V5 1-384, Phe41Ala | Val341Arg | Leu345Asp)
GST-Cul5^NTD His48Ala = GST-Cul5^NTD His48Ala (mouse, UniProt Q9D5V5 1-384, His48Ala | Val341Arg | Leu345Asp)
GST-Cul5^NTD Leu52Ala = GST-Cul5^NTD Leu52Ala (mouse, UniProt Q9D5V5 1-384, Leu52Ala | Val341Arg | Leu345Asp)
Sequence of GST-Cul5^NTD Leu52Ala (Q9D5V5 1-384 L52A/V341R/L345D): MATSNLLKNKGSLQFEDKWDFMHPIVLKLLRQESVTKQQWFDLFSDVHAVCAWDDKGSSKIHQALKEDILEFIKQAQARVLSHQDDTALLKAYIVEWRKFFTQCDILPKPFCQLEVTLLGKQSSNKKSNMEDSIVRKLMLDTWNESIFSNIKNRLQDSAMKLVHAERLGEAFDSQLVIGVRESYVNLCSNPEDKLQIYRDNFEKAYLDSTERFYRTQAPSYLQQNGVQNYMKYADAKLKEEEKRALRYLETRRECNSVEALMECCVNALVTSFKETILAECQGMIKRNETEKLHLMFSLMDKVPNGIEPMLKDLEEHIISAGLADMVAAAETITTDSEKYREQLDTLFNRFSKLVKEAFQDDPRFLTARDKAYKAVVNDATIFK

GST-Cul5^NTD Gln113Ala = GST-Cul5^NTD Gln113Ala (mouse, UniProt Q9D5V5 1-384, Gln113Ala | Val341Arg | Leu345Asp)
Sequence of GST-Cul5^NTD Gln113Ala (Q9D5V5 1-384 Q113A/V341R/L345D): as the sequence (Q9D5V5 1-384 L52A/V341R/L345D) above, with A52L, Q113A counted along it

Sequence of GST-Cul5^NTD (wild type) (Q9D5V5 1-384 V341R/L345D): as the sequence (Q9D5V5 1-384 L52A/V341R/L345D) above, with A52L counted along it
Sequence of GST-Cul5^NTD Phe41Ala (Q9D5V5 1-384 F41A/V341R/L345D): as the sequence (Q9D5V5 1-384 L52A/V341R/L345D) above, with F41A, A52L counted along it
Sequence of GST-Cul5^NTD His48Ala (Q9D5V5 1-384 H48A/V341R/L345D): as the sequence (Q9D5V5 1-384 L52A/V341R/L345D) above, with H48A, A52L counted along it

- binding result (GST-Cul5^NTD (wild type)): binds
- fold loss in affinity against wild-type Cul5 (GST-Cul5^NTD Phe41Ala): 50 fold
- fold loss in affinity against wild-type Cul5 (GST-Cul5^NTD His48Ala): 50 fold
- binding result (GST-Cul5^NTD Leu52Ala): binds
- binding result (GST-Cul5^NTD Gln113Ala): binds
B1: ASB9–Elongin B/C ternary complex (wild type) (complex)
chain 1: SDWSPMHEAAIHGHQLSLRNLISQGWAVNIITADHVSPLHEACLGGHLSCVKILLKHGAQVNGVTADWHTPLFNACVSGSWDCVNLLLQHGASVQPESDLASPIHEAARRGHVECVNSLIAYGGNIDHKISHLGTPLYLACENQQRACVKKLLESGADVNQGKGQDSPLHAVARTASEELACLLMDFGADTQAKNAEGKRPVELVPPESPLAQLFLEREGPPSLMQLCRLRIRKCFGIQQHHKITKLVLPEDLKQFLLHL
chain 2: […]
chain 3: […]
